# Data: US20210008109A1, “METHODS OF TREATING HEMATOLOGICAL DISORDERS, SOLID TUMORS, OR INFECTIOUS DISEASES USING NATURAL KILLER CELLS” (CELGENE CORPORATION, priority 2014, published 2021)
# System: Daudi cells
# Assay: Antibody-dependent cellular cytotoxicity (ADCC) of PiNK cells with rituximab, PKH26/TO-PRO-3 FACS
# Type: cell-based
# Details: Daudi cells pre-incubated 1 h with rituximab, compared to human IgG isotype control; E:T 50:1, 20:1, 10:1 and 2.5:1; 4 h at 37° C.
# Description: The experiments presented herein utilize an anti-CD20 antibody, rituximab, and Daudi cells (Cat #: CCL-213, ATCC), which are high expressers of CD20. Daudi cells were harvested and labeled with PKH26 (Cat #: PKH26GL-1KT, Sigma-Aldrich) (Ferlazzo, G., et al., J Immunol, 172: 1455-1462 (2004); Lehmann, D., et al., Stem Cells Dev, 21: 2926-2938 (2012)), whose lipophilic aliphatic residue inserts into cell plasma membrane. The cells were washed and incubated with rituximab (and human IgG as an isotype control) at different concentrations as indicated in FIG. 1 for 1 h at room temperature. After washing three times, 10^4 target cells were placed in 96-well U-bottom tissue culture plates and incubated with cultured NK cells at various effector-target (E:T) ratios (50:1, 20:1, 10:1 and 2.5:1) in 200 μl RPMI 1640 supplemented with 10% FBS. The Cultures were incubated for 4 h at 37° C. in 5% CO2. After incubation, cells were harvested and TO-PRO-3 (Catalog #T3605, Invitrogen), a membrane-impermeable DNA stain, was added to cultures to 0.25 μM final concentration followed by FACS analysis using BD FACSCanto II. Cytotoxicity (“% cytotoxicity” in FIG. 1) is expressed as percentage of dead cells (PKH26^+TO-PRO-3^+) within the total PKH26^+ target tumor cells, subtracted by spontaneous cell death.
substance,measurement,value
rituximab,"% cytotoxicity of PiNK cells (dead PKH26+TO-PRO-3+ cells within total PKH26+ target cells, minus spontaneous cell death)",increases the cytotoxicity
